The results in this text go back to US12371675B2, “Process and microorganism for synthesis of adipic acid from carboxylic acids” (THE GOVERNING COUNCIL OF THE UNIVERSITY OF TORONTO, priority 2015, dated 2025).

Substrate in series [1]: O=CCCCCC=O
Put plainly: AT kinetics, coupled with alanine and glutamate dehydrogenases. The settings on record: other: amino-donor Ala/Glu; pH 7.5. The format is biochemical, Sinorhizobium meliloti. The method, then:
28 PLP-dependent aminotransferases (from the classes I, II and III) were cloned and overexpressed in E. coli (Table 6). Enzymes were purified using affinity chromatography on a Ni-NTA resin and were screened for […] activity towards adipaldehyde using alanine and glutamate as amino-donors. Enzyme activity was measured spectrophotometrically using a coupled reaction with the NADPH/NADH-dependent alanine and glutamate dehydrogenases in the presence of excess of ammonium chloride.
Reaction was monitored by following the decrease in absorbance of NAD(P)H to NAD(P)+ at 340 nm (ε340 nm=6,220/M·cm). Coupled enzymes can aminate pyruvate/ketoglutarate produced by ATs in excess of NH4Cl.

Substrate in series [2]: O=C(O)CCCCCO
Put plainly: purified protein, by the assay type. The settings on record: other: ATP/NADPH dependent reduction; pH 7.5.

B1: Sinorhizobium meliloti aminotransferase SM2011_c04388, SEQ ID NO: 58 (Sinorhizobium meliloti 1021) (protein)
chain: MNAHNKPNAPVLDSYWMPFTANRQFKAAPRLLAAAEGMHYTSVDGRTVLDGTAGLWCVNAGHGRRQIAAAVERQLSTMDFAPSFQMGHPIAFDFAERLAEIAPGPAGAKLDRVFFTGSGSESVDTALKMALAYQRSIGQGTRTRLIGRERGYHGVGFGGISVGGIVNNRRVFPQLPGSDHLRHTHDPAKNAFVKGQPEHGAELADDLERLVALHGAETIAACIVEPVAGSTGVLIPPKGYLERLRAICDKHGILLIFDEVITGFGRLGAAFATDYFGVTPDIVTTAKGLTNGAIPMGAVFASRKVHDALMHGPEGQIELFHGYTYSGHPAACAAGIATLDIYRDEGLMTRAAEIEGDWHEAMHSMKGLPHVIDIRTIGLIAGIELQSRDGAPGARAYDVFVDCFERGLLIRVTGDIIAFSPPLIAEKQHFGEIVSILADALKRVK
Turning to B1, the Michaelis-Menten constant (Km) in series [1] came to 8.58 ± 3.34 mM.

B2: Mycobacterium smegmatis carboxylate reductase MSMEG_2956, SEQ ID NO: 70 (Mycolicibacterium smegmatis MC2 155) (protein)
chain: MTIETREDRFNRRIDHLFETDPQFAAARPDEAISAAAADPELRLPAAVKQILAGYADRPALGKRAVEFVTDEEGRTTAKLLPRFDTITYRQLAGRIQAVTNAWHNHPVNAGDRVAILGFTSVDYTTIDIALLELGAVSVPLQTSAPVAQLQPIVAETEPKVIASSVDFLADAVALVESGPAPSRLVVFDYSHEVDDQREAFEAAKGKLAGTGVVVETITDALDRGRSLADAPLYVPDEADPLTLLIYTSGSTGTPKGAMYPESKTATMWQAGSKARWDETLGVMPSITLNFMPMSHVMGRGILCSTLASGGTAYFAARSDLSTFLEDLALVRPTQLNFVPRIWDMLFQEYQSRLDNRRAEGSEDRAEAAVLEEVRTQLLGGRFVSALTGSAPISAEMKSWVEDLLDMHLLEGYGSTEAGAVFIDGQIQRPPVIDYKLVDVPDLGYFATDRPYPRGELLVKSEQMFPGYYKRPEITAEMFDEDGYYRTGDIVAELGPDHLEYLDRRNNVLKLSQGEFVTVSKLEAVFGDSPLVRQIYVYGNSARSYLLAVVVPTEEALSRWDGDELKSRISDSLQDAARAAGLQSYEIPRDFLVETTPFTLENGLLTGIRKLARPKLKAHYGERLEQLYTDLAEGQANELRELRRNGADRPVVETVSRAAVALLGASVTDLRSDAHFTDLGGDSLSALSFSNLLHEIFDVDVPVGVIVSPATDLAGVAAYIEGELRGSKRPTYASVHGRDATEVRARDLALGKFIDAKTLSAAPGLPRSGTEIRTVLLTGATGFLGRYLALEWLERMDLVDGKVICLVRARSDDEARARLDATFDTGDATLLEHYRALAADHLEVIAGDKGEADLGLDHDTWQRLADTVDLIVDPAALVNHVLPYSQMFGPNALGTAELIRIALTTTIKPYVYVSTIGVGQGISPEAFVEDADIREISATRRVDDSYANGYGNSKWAGEVLLREAHDWCGLPVSVFRCDMILADTTYSGQLNLPDMFTRLMLSLVATGIAPGSFYELDADGNRQRAHYDGLPVEFIAEAISTIGSQVTDGFETFHVMNPYDDGIGLDEYVDWLIEAGYPVHRVDDYATWLSRFETALRALPERQRQASLLPLLHNYQQPSPPVCGAMAPTDRFRAAVQDAKIGPDKDIPHVTADVIVKYISNLQMLGLL
For B2, in series [2], the Michaelis-Menten constant (Km) stood at 66.15 ± 9.48 mM, the catalytic constant (kcat) stood at 2.32 ± 0.22 s⁻¹ and the kcat/Km came to 35.1 ± 3.29 M⁻¹ s⁻¹.

B3: Sinorhizobium meliloti aminotransferase SM2011_b20423, SEQ ID NO: 60 (Sinorhizobium meliloti 1021) (protein)
chain: MLERSNELTAWDRDHFFHPSTHMGMHARGETPTRVIGGGEGVYITDISGKRSLDAFAGLYCVNVGYGRQKIADAIAEQAKNLAYYHAYVGHGTEASIRLSKMIIDRAPEGMSRVYFGLSGSDANETNIKLIWYYNNILGRPEKKKIISRWRGYHGSGVMTGSLTGLHLFHNAFDLPRAPILHTEAPYYFRRPDRSMSEEQFSQYCADKLEEMILAEGPDTVAAFIGEPILGTGGIVPPPKGYWEKIQAVLQKYDILLVADEVVTGFGRLGTMFGSDHYGIKPDLITIAKGLTSAYAPLSGTIVSDKLWQVLVKGSDELGAIGHGWTYSAHPICAAAGIANLELIDELGIVENAGSTGAYFRAELQKAVGDHRHVGEVRGDGLMAAIEFVEDRDDRAFFDPGRKVGPQVAAALLERGVIGRAMPQGDILGFAPPLCLTRDEADIVVKAAADTIQSVLGR
For B3, in series [1], the Michaelis-Menten constant (Km) is on record as 2.64 ± 0.35 mM, the turnover number (kcat) turned out to be 0.28 ± 0.01 s⁻¹ and the kcat/Km entry was “(1.05 ± 0.06) × ×10^2 M^−1 · s^−1”.

B4: Mycobacterium smegmatis carboxylate reductase MSMEI_5586, SEQ ID NO: 35 (Mycolicibacterium smegmatis MC2 155) (protein)
chain: MHQLTVTGMNICEVQRLFPRMTSDVHDATDGVTETALDDEQSTRRIAELYATDPEFAAAAPLPAVVDAAHKPGLRLAEILQTLFTGYGDRPALGYRARELATDEGGRTVTRLLPRFDTLTYAQVWSRVQAVAAALRHNFAQPIYPGDAVATIGFASPDYLTLDLVCAYLGLVSVPLQHNAPVSRLAPILAEVEPRILTVSAEYLDLAVESVRDVNSVSQLVVFDHHPEVDDHRDALARAREQLAGKGIAVTTLDAIADEGAGLPAEPIYTADHDQRLAMILYTSGSTGAPKGAMYTEAMVARLWTMSFITGDPTPVINVNFMPLNHLGGRIPISTAVQNGGTSYFVPESDMSTLFEDLALVRPTELGLVPRVADMLYQHHLATVDRLVTQGADELTAEKQAGAELREQVLGGRVITGFVSTAPLAAEMRAFLDITLGAHIVDGYGLTETGAVTRDGVIVRPPVIDYKLIDVPELGYFSTDKPYPRGELLVRSQTLTPGYYKRPEVTASVFDRDGYYHTGDVMAETAPDHLVYVDRRNNVLKLAQGEFVAVANLEAVFSGAALVRQIFVYGNSERSFLLAVVVPTPEALEQYDPAALKAALADSLQRTARDAELQSYEVPADFIVETEPFSAANGLLSGVGKLLRPNLKDRYGQRLEQMYADIAATQANQLRELRRAAATQPVIDTLTQAAATILGTGSEVASDAHFTDLGGDSLSALTLSNLLSDFFGFEVPVGTIVNPATNLAQLAQHIEAQRTAGDRRPSFTTVHGADATEIRASELTLDKFIDAETLRAAPGLPKVTTEPRTVLLSGANGWLGRFLTLQWLERLAPVGGTLITIVRGRDDAAARARLTQAYDTDPELSRRFAELADRHLRVVAGDIGDPNLGLTPEIWHRLAAEVDLVVHPAALVNHVLPYRQLFGPNVVGTAEVIKLALTERIKPVTYLSTVSVAMGIPDFEEDGDIRTVSPVRPLDGGYANGYGNSKWAGEVLLREAHDLCGLPVATFRSDMILAHPRYRGQVNVPDMFTRLLLSLLITGVAPRSFYIGDGERPRAHYPGLTVDFVAEAVTTLGAQQREGYVSYDVMNPHDDGISLDVFVDWLIRAGHPIDRVDDYDDWVRRFETALTALPEKRRAQTVLPLLHAFRAPQAPLRGAPEPTEVFHAAVRTAKVGPGDIPHLDEALIDKYIRDLREFGLI
Take B4: in series [2], the Michaelis constant (Km) is 16.2 ± 2.11 mM, the turnover number (kcat) came out at 1.2 ± 0.07 s⁻¹ and the specificity constant (kcat/Km) turned out to be 74.2 ± 4.05 M⁻¹ s⁻¹.

B5: Sinorhizobium meliloti aminotransferase SM2011_b20379, SEQ ID NO: 59 (Sinorhizobium meliloti 1021) (protein)
chain: MNDRPNSLHALDKQSLVHPYTNLAVHQETGPHVITGGDGIYVVDDEGKRYIEGLAGLFCAGLGFSEQRLVEAATRQLKTMPFYHSFAHKSTEPGIRLAEKLLSIAPVPMSKVFFAGSGSEANDTAIKLIWYYNNALGRPEKKKIISRRKAYHGVTVATASLTGLPFNHRDFDLPIANILHTDCPHYWRFAETGETEEDFATRMANNLEAIILEEGPETIAAFFAEPVMVSGGVITPPKTYFEKVQAVLRKYDILLIADEVICGFGRTGNMFGSETYGLKPDMISCAKQLSAAYMPISALMINAKIADALVDQSRKIGTFSHGFTYGGHPVAAAVALEALTIYEEIDIVGHVRSVAPAFQDRVRKLGEHPLIGEARGVGLVAGLEFVKDKATRENFPPAWQVANQAGKFATARGVLTRGLGDMVSLCPAMIIDDEQIDDLMTRMGLALDDTLAWARAQGHVG
B5: in series [1], the Km turned out to be 0.32 ± 0.10 mM, the kcat was 0.26 ± 0.05 s⁻¹ and the specificity constant (kcat/Km) entry is listed as “(8.08 ± 1.52) × ×10^2 M^−1 · s^−1”.

B6: Mycobacterium smegmatis carboxylate reductase MSMEG_5739, SEQ ID NO: 37 (Mycolicibacterium smegmatis MC2 155) (protein)
chain: MTSDVHDATDGVTETALDDEQSTRRIAELYATDPEFAAAAPLPAVVDAAHKPGLRLAEILQTLFTGYGDRPALGYRARELATDEGGRTVTRLLPRFDTLTYAQVWSRVQAVAAALRHNFAQPIYPGDAVATIGFASPDYLTLDLVCAYLGLVSVPLQHNAPVSRLAPILAEVEPRILTVSAEYLDLAVESVRDVNSVSQLVVFDHHPEVDDHRDALARAREQLAGKGIAVTTLDAIADEGAGLPAEPIYTADHDQRLAMILYTSGSTGAPKGAMYTEAMVARLWTMSFITGDPTPVINVNFMPLNHLGGRIPISTAVQNGGTSYFVPESDMSTLFEDLALVRPTELGLVPRVADMLYQHHLATVDRLVTQGADELTAEKQAGAELREQVLGGRVITGFVSTAPLAAEMRAFLDITLGAHIVDGYGLTETGAVTRDGVIVRPPVIDYKLIDVPELGYFSTDKPYPRGELLVRSQTLTPGYYKRPEVTASVFDRDGYYHTGDVMAETAPDHLVYVDRRNNVLKLAQGEFVAVANLEAVFSGAALVRQIFVYGNSERSFLLAVVVPTPEALEQYDPAALKAALADSLQRTARDAELQSYEVPADFIVETEPFSAANGLLSGVGKLLRPNLKDRYGQRLEQMYADIAATQANQLRELRRAAATQPVIDTLTQAAATILGTGSEVASDAHFTDLGGDSLSALTLSNLLSDFFGFEVPVGTIVNPATNLAQLAQHIEAQRTAGDRRPSFTTVHGADATEIRASELTLDKFIDAETLRAAPGLPKVTTEPRTVLLSGANGWLGRFLTLQWLERLAPVGGTLITIVRGRDDAAARARLTQAYDTDPELSRRFAELADRHLRVVAGDIGDPNLGLTPEIWHRLAAEVDLVVHPAALVNHVLPYRQLFGPNVVGTAEVIKLALTERIKPVTYLSTVSVAMGIPDFEEDGDIRTVSPVRPLDGGYANGYGNSKWAGEVLLREAHDLCGLPVATFRSDMILAHPRYRGQVNVPDMFTRLLLSLLITGVAPRSFYIGDGERPRAHYPGLTVDFVAEAVTTLGAQQREGYVSYDVMNPHDDGISLDVFVDWLIRAGHPIDRVDDYDDWVRRFETALTALPEKRRAQTVLPLLHAFRAPQAPLRGAPEPTEVFHAAVRTAKVGPGDIPHLDEALIDKYIRDLREFGLI
Regarding B6, in series [2], the Km was determined as 8.33 ± 0.73 mM, the kcat came out at 1.21 ± 0.04 s⁻¹ and the specificity constant (kcat/Km) came to 145 ± 4.4 M⁻¹ s⁻¹.
